According to patent US20110178027A1 (SOCIETE DE COMMERCIALISATION DES PRODUITS DE LA RECHERCHE …, published 2011):
Where “and” joins values, the source holds several entries; their conditions need not be identical. Equal values may be shown once. No end group written: not given here.

Assays:
[1] = target: T1, PC1/3 (UniProt P29120 111-753, limits assumed); assay: enzyme inhibition assay, fluorogenic substrate PyrRTKR-MCA
T1 sequence (looked up): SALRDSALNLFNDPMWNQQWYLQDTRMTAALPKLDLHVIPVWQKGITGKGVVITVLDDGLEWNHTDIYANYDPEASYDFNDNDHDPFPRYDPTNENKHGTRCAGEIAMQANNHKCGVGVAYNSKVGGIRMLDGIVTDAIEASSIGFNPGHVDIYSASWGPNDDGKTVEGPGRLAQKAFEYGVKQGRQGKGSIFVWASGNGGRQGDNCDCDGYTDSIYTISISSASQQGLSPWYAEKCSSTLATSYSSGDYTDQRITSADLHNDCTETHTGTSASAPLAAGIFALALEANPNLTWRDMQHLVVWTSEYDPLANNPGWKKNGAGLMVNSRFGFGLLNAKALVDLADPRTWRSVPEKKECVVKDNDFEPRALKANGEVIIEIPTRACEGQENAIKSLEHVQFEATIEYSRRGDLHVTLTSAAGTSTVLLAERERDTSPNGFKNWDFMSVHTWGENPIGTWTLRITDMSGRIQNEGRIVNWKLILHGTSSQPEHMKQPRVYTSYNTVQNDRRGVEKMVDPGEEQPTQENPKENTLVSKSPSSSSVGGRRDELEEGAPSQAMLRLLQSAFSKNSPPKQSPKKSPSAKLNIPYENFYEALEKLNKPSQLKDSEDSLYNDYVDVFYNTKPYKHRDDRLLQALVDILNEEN
Procedure: (§1) Enzyme inhibition assays for furin (FIG. 5D) were performed in 100 mM Hepes pH 7.5, 1 mM CaCl₂, 1 mM β-mercaptoethanol, 0.5 μg/μL BSA. Assays for PC2 (FIG. 5E) were performed in 20 mM Bis-Tris pH 5.7, 1 mM CaCl₂, 0.1% Brij-30. Assays for PC1/3, PC4, PACE4, PC5/6 and PC7 (FIGS. 5F, G, A, B and C respectively) were performed in 20 mM Bis-T is pH 6.5, 1 mM CaCl₂. […] Inhibitory peptides were added to the enzymes at decreasing concentrations from 100 μM to 50 nM and incubated 5 minutes prior to the addition of substrate. […] Each Kᵢ value is the mean of 2 to 10 independent experiments.

[2] = target: T2, PC2 (UniProt P16519 110-638, limits assumed); assay: as above
T2 sequence (looked up): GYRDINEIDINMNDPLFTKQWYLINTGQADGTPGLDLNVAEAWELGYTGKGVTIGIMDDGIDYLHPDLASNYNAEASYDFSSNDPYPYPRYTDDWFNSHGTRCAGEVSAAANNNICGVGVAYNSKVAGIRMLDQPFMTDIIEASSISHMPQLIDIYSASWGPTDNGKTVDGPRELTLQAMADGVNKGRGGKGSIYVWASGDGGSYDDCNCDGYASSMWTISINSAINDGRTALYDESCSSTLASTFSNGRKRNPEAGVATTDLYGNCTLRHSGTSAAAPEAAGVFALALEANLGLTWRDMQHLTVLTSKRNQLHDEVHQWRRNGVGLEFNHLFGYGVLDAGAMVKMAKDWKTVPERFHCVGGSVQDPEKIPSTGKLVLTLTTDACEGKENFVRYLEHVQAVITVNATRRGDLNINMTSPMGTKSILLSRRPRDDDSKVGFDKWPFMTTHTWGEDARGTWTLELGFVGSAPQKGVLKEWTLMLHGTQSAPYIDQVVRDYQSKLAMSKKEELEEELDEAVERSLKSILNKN
Procedure: as §1

[3] = target: T3, PC4 (UniProt Q6UW60 114-708, limits assumed); assay: as above
T3 sequence (looked up): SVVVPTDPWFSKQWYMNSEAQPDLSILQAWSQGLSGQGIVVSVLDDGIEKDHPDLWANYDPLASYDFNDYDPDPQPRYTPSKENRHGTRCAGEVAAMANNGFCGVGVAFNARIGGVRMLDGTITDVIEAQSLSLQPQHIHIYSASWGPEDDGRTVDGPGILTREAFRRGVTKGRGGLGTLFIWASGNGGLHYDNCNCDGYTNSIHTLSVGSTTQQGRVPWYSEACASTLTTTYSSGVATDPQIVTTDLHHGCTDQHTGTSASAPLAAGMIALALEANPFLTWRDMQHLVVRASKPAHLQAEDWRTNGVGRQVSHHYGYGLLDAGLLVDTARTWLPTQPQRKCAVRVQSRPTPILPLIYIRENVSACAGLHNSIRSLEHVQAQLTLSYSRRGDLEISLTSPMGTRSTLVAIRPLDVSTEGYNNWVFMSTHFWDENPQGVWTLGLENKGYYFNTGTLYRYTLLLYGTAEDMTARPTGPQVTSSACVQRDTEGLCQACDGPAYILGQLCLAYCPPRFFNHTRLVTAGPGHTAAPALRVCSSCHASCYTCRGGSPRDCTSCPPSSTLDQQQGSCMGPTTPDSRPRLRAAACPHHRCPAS
Procedure: as §1

[4] = target: T4, PC5/6 (UniProt Q92824-2 115-913, limits assumed); assay: as above
T4 sequence (looked up): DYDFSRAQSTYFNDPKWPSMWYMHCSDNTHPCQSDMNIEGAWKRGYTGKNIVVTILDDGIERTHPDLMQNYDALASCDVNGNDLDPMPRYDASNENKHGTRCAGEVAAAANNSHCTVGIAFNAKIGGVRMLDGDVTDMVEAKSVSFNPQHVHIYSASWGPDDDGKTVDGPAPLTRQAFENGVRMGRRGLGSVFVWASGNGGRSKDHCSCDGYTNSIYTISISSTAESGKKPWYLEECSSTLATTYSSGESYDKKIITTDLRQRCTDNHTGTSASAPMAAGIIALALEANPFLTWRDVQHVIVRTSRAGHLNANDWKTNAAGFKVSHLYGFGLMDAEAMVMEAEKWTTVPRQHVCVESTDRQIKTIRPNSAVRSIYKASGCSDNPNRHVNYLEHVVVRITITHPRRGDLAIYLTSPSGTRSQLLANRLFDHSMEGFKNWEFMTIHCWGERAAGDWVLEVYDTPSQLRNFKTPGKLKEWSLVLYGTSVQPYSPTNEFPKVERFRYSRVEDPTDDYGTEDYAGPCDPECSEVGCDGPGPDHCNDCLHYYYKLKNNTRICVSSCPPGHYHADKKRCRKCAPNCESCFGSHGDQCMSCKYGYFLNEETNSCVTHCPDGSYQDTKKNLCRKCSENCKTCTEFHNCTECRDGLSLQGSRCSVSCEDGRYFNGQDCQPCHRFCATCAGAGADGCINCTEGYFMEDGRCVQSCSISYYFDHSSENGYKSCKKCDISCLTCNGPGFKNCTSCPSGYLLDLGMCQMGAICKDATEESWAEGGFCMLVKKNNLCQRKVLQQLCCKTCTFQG
Procedure: as §1

[5] = target: T5, PC7 (UniProt Q16549 142-667, limits assumed); assay: as above
T5 sequence (looked up): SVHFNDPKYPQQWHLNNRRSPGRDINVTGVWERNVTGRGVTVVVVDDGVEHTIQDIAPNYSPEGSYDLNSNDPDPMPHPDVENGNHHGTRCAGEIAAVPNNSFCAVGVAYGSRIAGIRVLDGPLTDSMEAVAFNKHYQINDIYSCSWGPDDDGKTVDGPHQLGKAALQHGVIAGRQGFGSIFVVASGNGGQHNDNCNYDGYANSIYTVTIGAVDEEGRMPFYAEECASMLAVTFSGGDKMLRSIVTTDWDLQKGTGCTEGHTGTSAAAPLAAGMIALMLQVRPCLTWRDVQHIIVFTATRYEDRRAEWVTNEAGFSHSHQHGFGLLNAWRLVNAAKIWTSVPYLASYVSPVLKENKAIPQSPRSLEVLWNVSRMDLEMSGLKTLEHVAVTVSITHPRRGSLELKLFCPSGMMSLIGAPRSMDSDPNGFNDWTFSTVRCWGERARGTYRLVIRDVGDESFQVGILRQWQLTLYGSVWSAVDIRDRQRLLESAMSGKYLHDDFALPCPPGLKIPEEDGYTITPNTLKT
Procedure: as §1

[6] = target: T6, PACE4 (UniProt P29122 150-969, limits assumed); assay: as above
T6 sequence (looked up): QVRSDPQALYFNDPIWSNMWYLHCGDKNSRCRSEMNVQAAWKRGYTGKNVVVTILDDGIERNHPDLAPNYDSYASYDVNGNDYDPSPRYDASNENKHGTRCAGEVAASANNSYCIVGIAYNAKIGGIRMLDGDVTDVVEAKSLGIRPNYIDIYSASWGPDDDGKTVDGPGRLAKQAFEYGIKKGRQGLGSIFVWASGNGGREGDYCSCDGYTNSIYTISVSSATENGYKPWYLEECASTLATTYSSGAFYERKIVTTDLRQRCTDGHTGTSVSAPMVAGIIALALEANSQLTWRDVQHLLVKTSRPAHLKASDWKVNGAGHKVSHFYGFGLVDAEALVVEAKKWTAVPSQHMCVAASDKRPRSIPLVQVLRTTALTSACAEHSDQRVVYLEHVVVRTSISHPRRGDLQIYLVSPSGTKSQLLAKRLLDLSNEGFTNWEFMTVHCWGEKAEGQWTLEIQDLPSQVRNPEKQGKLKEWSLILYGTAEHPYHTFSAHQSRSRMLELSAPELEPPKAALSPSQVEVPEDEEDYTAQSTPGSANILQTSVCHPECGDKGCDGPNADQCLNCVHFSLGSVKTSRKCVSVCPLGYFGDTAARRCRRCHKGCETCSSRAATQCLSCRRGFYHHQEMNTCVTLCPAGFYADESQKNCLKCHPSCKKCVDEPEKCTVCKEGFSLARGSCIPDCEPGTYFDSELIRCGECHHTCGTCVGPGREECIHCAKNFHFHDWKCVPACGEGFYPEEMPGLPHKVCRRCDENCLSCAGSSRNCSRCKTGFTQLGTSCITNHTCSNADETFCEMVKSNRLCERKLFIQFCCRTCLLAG
Procedure: as §1

[7] = target: furin (UniProt P09958 108-715, limits assumed); assay: as above
Sequence of furin (P09958 108-715 limits assumed): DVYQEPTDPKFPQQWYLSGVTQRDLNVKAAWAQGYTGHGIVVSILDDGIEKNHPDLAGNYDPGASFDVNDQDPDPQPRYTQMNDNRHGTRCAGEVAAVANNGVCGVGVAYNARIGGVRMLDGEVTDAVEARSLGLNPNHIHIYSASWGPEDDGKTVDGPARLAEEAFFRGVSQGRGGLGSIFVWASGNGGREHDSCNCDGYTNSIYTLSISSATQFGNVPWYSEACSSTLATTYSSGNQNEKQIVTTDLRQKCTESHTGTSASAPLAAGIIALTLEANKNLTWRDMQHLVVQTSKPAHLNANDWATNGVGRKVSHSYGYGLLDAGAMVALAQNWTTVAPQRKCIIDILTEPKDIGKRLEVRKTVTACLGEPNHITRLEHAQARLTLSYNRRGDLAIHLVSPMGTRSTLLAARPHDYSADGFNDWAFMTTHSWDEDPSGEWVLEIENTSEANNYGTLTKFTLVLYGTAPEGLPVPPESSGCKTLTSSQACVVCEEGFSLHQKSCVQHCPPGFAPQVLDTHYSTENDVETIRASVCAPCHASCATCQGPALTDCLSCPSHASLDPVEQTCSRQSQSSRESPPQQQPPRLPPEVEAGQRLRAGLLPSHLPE
Procedure: as §1

[8] = target: T6, PACE4; assay: enzyme inhibition assay, ratio of Ki values against the other PCs
Procedure: as §1

LLLLRVKR-NH2 (also called 4 Leu; Multi-Leu (ML)) [LLLLRVKR-NH2]
Ki [1]: 454 nM | Ki [2]: 18.8 µM | Ki [3]: 205 nM | Ki [4]: 245 nM | Ki [5]: 54 nM and 50 nM | Ki [6]: 6 nM and 5.5 nM and 5 nM | Ki [7]: 114 nM | fold more effective on PACE4 than the other PCs [8]: ≥ 9 fold

B1: LLLLLRVKR-NH2 (peptide)
peptide: LLLLLRVKR-NH2
notes: also called 5 Leu; multi-leucine peptide containing five leucines
Ki [3]: 164 nM
